The values that follow come from PMC5385344, “Large Diversity of Functional Nanobodies from a Camelid Immune Library Revealed by an Alternative Analysis of Next-Generation Sequencing Data” (Frontiers in Immunology, 2017).

The target of assay [1] is T1, Recombinant extracellular domain of human RON (rhRON) (human, UniProt Q04912).
Assay [2] concerns the target full-length human RON expressed on HEK293T cells (HEK293T-hRON) (Homo sapiens, UniProt Q04912).
The target in assay [3] is T2, RON endogenously expressed on T-47D human breast cancer cells (Homo sapiens (T-47D cell line), UniProt Q04912). The experiment in a line: cell-based or functional assay.
Assay [4] deals with T1, Recombinant extracellular domain of …. The assay is described as follows: SPR; ProteOn; rhRON immobilised on GLC chip; 1/10 diluted crude periplasmic extracts injected 2 min at 45 µl/min; Langmuir model, off-rate only. To be noted: one partner purified. (SPR reads the build-up and loss of mass on a sensor chip optically.)
Assay [5] has as its target T2, RON endogenously expressed on T-47D …. The assay is described as follows: flow cytometry on cells; dilution series of purified nanobodies starting at 500 nM on T-47D cells endogenously expressing RON; anti-FLAG then anti-mouse APC. The conditions noted are these: one partner purified. (In general: In flow cytometry, cells or beads pass a laser one at a time.)
Assay [6] concerns the target T1, Recombinant extracellular domain of …. The experiment in a line: ELISA; ligand competition: rhRON (1 µg/ml) immobilised directly; dilution series of purified nanobodies starting at 1 µM added together with 2 nM biotinylated MSP; MSP detected by extravidin peroxidase. To be noted: both partners purified. (In general: In an ELISA, binding on a coated surface is turned into a signal by an enzyme label.)

T1 sequence (Q04912 25-957): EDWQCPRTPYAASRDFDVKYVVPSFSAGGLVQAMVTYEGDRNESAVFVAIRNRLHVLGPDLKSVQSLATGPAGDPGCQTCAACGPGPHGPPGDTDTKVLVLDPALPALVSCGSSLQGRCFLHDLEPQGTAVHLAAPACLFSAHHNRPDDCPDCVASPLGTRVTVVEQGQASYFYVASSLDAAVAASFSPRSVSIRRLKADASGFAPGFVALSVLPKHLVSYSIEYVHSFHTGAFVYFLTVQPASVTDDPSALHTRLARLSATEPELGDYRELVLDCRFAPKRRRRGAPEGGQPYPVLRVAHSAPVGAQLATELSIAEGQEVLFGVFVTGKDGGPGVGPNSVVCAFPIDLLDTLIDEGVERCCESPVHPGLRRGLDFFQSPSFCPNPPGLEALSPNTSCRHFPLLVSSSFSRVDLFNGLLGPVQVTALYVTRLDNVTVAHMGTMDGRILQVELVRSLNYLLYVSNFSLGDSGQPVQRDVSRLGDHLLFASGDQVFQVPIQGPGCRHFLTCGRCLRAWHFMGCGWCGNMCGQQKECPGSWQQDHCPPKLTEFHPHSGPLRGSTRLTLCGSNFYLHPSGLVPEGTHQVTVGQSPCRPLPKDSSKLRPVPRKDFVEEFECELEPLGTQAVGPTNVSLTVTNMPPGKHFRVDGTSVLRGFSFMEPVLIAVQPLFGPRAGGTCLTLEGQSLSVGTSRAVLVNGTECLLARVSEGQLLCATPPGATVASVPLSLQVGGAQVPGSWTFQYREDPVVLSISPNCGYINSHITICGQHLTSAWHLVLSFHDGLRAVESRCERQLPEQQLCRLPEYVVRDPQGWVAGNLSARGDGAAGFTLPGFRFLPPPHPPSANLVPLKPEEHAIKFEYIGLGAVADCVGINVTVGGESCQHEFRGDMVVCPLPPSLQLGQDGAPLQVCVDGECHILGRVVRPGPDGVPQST
Chain of full-length human RON expressed on HEK293T cells (HEK293T-hRON) (Q04912 25-1400): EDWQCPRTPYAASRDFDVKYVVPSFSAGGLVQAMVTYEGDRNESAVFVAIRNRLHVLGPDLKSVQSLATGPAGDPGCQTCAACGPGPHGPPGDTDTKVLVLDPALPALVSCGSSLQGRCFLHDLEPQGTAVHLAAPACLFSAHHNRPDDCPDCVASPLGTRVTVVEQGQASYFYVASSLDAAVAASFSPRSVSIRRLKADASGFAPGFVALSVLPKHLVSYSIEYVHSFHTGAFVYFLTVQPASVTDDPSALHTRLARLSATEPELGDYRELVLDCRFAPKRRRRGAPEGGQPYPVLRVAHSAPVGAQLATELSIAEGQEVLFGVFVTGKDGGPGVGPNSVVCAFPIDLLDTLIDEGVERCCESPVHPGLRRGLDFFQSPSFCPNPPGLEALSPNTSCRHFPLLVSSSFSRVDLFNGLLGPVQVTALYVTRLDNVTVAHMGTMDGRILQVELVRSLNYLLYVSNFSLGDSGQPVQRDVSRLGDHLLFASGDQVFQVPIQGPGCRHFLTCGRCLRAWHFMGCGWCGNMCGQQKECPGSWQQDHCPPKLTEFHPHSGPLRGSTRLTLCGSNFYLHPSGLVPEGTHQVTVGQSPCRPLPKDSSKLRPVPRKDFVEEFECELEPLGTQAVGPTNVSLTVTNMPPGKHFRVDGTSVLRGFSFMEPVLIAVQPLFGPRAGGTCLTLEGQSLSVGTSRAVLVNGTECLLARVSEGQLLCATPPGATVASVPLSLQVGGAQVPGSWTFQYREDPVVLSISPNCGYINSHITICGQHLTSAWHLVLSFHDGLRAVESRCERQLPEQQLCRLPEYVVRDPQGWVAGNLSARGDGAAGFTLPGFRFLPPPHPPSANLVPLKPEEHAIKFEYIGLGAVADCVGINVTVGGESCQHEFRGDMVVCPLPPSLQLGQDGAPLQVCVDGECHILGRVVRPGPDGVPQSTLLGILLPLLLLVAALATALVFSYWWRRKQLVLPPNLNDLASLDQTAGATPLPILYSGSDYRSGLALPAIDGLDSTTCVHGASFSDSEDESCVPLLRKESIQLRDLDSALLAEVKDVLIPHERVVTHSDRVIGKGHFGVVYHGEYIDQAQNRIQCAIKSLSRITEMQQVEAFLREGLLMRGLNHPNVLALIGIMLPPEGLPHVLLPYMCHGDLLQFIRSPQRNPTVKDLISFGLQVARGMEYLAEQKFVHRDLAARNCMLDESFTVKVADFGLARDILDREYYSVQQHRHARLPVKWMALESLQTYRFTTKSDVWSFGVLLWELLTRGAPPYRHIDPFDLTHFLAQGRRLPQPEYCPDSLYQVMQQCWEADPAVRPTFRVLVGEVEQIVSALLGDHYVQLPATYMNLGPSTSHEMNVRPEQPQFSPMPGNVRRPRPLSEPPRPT
T2 sequence (Q04912 25-1400): as above

B1: KY704059 (VHH)
VHH: EVQLVESGGGLVQAGGSLRLSCTASGRSFSRYTMGWFRQAAGKERVFVAHIAWSGGTRYYADSVKGRFTISRDNAKNTVWLQMNSLKPEDTAVYYCAATSQTGLIVVNTRDYEIWGQGTLVTVSS
For B1, the binding result in assay [1] and in assay [2] was “binds” throughout.

B2: nanobody 8A09 (VHH)
VHH: EVQLVKSGGGLVQAGGSLRLSCAASGRVAMGWFRQPPGKEREFVAAISASGATKYYADSVKGRFTIFRDNANTTVYLQMNSLKPEDTAVYYCAARLRWDSDYTSGGRYDYWGQGTQVTVSS
notes: From a llama immunised with rhRON; found by conventional screening and by NGS; source: E. coli, crude periplasmic extract; E. coli, purified; not shown: FLAG3, C-terminal, kept
As to B2, in assay [3], the “IC50 (M) inhibition of ERK phosphorylation induced by 1 nM MSP through RON on T-47D cells; purified nanobody, HTRF phospho-ERK” value (“IC50 (M) inhibition” below) is 4.9e-09 M and the “maximum inhibition (efficacy) of MSP-induced ERK phosphorylation in T-47D cells” value (“maximum inhibition (efficacy)” for short) was found to be 100%. For the same molecule, the koff (in general, the first-order rate constant of dissociation) in assay [4] turned out to be 0.00062 s⁻¹. Besides, in assay [5], it took 0.093 nM to reach a half-maximal effect (EC50). Moreover, in assay [6], the IC50 (usually the concentration at which inhibition is half-maximal) came to 16 nM and the “maximum inhibition of MSP binding” value came out at 98%.

B3: KY704058 (VHH)
VHH: EVQLVESGGGLVQAGDSLRLSCAASGGTLNGYAMAWFRQAPGKERDVVATINWSGSWKYYADSVKGRFTISRDNAKGTVYLQMNSLKPEDTAVYRCAARRGGGNYYTRAVDFDYWGQGTLVTVSS
B3: the binding result in assay [1] and in assay [2] was “binds” each time.

B4: KY704048 (VHH)
VHH: EVQLVESGGGLVQAGGSLRLSCAASGDTFSTYGMGWFRQAPGKEREIVARITWNRRTYYADSVKGRFTISRDNAKNAAYLEMNSLKPEDTAVYMCAAVRGDNLFHTRPRDYDYWGQGTLVTVSS
B4: the binding result in assay [1] and in assay [2] was “binds” each time.

B5: KY704054 (VHH)
VHH: EVQLVESGGGLVQTGGSLRLSCAASGIYFRLYTMGWYRQAPGNQRELVALITSTRSTHYADSVKGRFTISRDNAKNTLYLQMNSLKPEDTAVYYCNAHNGQGDFWGQGTLVTVSS
Turning to B5, the binding result in assay [1] and in assay [2] was “binds” throughout.

B6: KY704041 (VHH)
VHH: EVQLVESGGGLVQAGGSLRLSCAASGRAFSSYAMGWFRQAPGKEREFVAVISGRGGVTYYAASVKGRFTISRDNAKNTVLLQMSSLKPEDTGVYYCAAGPNIGVLTDPAYSGGDWGQGTLVTVSS
With B6, the binding result in assay [1] and in assay [2] was “binds” in each case.

B7: KY704052 (VHH)
VHH: EVQLVESGGGLVQAGGSLRLSCAASGRTFSDYSMGWFRQAPGKEREPVAAVSRSGDDLMYENSLKGRFAISRDNAKNTVYLQMNSLKPEDTAVYYCAASTRFITALAANYDYWGQGTLVTVSS
Consider B7, for which the binding result in assay [1] and in assay [2] was “binds” each time.

B8: KY704047 (VHH)
VHH: EVQLVESGGGLVQAGGSLRLSCAASGIPFSRYHMGWFRQAPGKEREFVASVSWSGQNTYYADSVKGRFTISRDNAKNTGNLQMNSMKPEDTAVYYCAAGSRYYTDIIPNYYRYWGQGTLVTVSS
Consider B8, for which the binding result in assay [1] and in assay [2] was “binds” throughout.

B9: KY704061 (VHH)
VHH: EVQLVESGGGLVQAGGSLRLSCAASGRTFSNDAMGWFRQAPGKERAFVGVINWNGVTTRYTDSVEGRFTISRDNAKNTVYLQMNSLKPEDTAVYFCAAGGGPVAVSSGRSAYWGQGTLVTVSS
On to B9, for which the binding result in assay [1] and in assay [2] was “binds” each time.

B10: nanobody 2B09 (VHH)
VHH: EVQLVESGGGLVQPGGSLRLSCAASGFSLDNYGIGWFRQAPGKEREGVSYISSTSLTRYYAASVKGRFTISRDNSKNTVYLQMNSLNPEDTAVYYCASTDRWPGIEWYRGEYDNWGQGTQVTVSS
notes: as for B2
For the molecule B10, in assay [3], the “IC50 (M) inhibition” value worked out at 9.6e-08 M and the “maximum inhibition (efficacy)” value was determined as 96%. Also, in assay [4], the koff is 0.0018 s⁻¹. In addition, the EC50 – broadly, the midpoint of the concentration-response curve – in assay [5] came out at 1.3 nM.

B11: nanobody 2D07 (VHH)
VHH: EVQLVESGGGLVQPGGSLRLSCAASGFTFRAYNMNWLRQAPGKGLEWVSVISGGGGGTLYADSVKGRFTISRDNAKNTLYLQMNSLKPEDTAVYYCAGSDFFADYGRPRHEYRYWGQGTQVTVSS
notes: as for B2
Regarding B11, in assay [3], the “IC50 (M) inhibition” value was found to be 1.8e-08 M and the “maximum inhibition (efficacy)” value amounted to 100%. Further, in assay [4], the koff is 0.005 s⁻¹. The molecule further gave an EC50 in assay [5] of 5 nM.

B12: KY704053 (VHH)
VHH: EVQLVESGGGLVQAGDSLRLSCAASGRTFSIYSMGWFRQATGKEREFVAAIRWSGTRTYYADSVKGRFTISGDIAKNTVYLQMNNLKPEDTAVYSCAAGGSRGYVAAPDRWDYWGQGTLVTVSS
As to B12, the binding result in assay [1] and in assay [2] was “binds” in each case.

B13: KY704042 (VHH)
VHH: EVQLVESGGGLVQAGGSLRLSCAASGRSFGSYHMGWFRQALGKEREFVAAISSGGGLLDYEDSVKGRFTISRDNAKNTVYLQMNSLTPEDTAVYYCAATARVWGSWFTSDYDYWGQGTLVTVSS
Take B13: the binding result in assay [1] and in assay [2] was “binds” each time.

B14: KY704044 (VHH)
VHH: EVQLVESGGGLVQAGGSLRLSCAASGRTSSIYRMGWFRQAPGKERDIVASIHWSGGRWFYADFVKGRFTISRDNAENTVYLQMSSLKPEDTAVYYCAARTPGTLTYDYWGQGTLVTVSS
Regarding B14, the binding result in assay [1] and in assay [2] was “binds” each time.

B15: nanobody 5G04 (VHH)
VHH: EVQLVESGGALVQAGDSLRVSCVASGRTFSHYAMGWFRQAPGKQREFVAAISWDGDSTSYANSLKGRFTISRDNAKNTGYLYMNSLIPEDTAVYYCAAGPNFSTLARRYDYWGQGTLVTVSS
notes: as for B2
For B15, in assay [3], the “IC50 (M) inhibition” value came out at 4.9e-09 M and the “maximum inhibition (efficacy)” value stood at 100%. Moreover, the koff in assay [4] is 0.00029 s⁻¹. This molecule also registered an EC50 in assay [5] of 0.33 nM.

B16: KY704055 (VHH)
VHH: EVQLVESGGGVVQAGGSLRLSCAASGRYGVGWFRQPPGKEREFVSAVSKSGGSTYYEDSVKGRFTISRDGAKNTVYLQMNSLKPEDTAVYYCAADGGGYSAYYYYTHQTEYEYWGQGTLVTVSS
B16: the binding result in assay [1] and in assay [2] was “binds” in each case.

B17: KY704045 (VHH)
VHH: EVQLVESGGGLVQAGGSLRLSCAASGRTFSSYIMAWFRQAPGKERDVVATVSWGGETTYYADSVKGRFTISRDNAKNTVYLQMNSLKPEDTAVYYCAASHARGYWHTPFTVADVGSWGQGTLVTVSS
For B17, the binding result in assay [1] and in assay [2] was “binds” throughout.

B18: KY704049 (VHH)
VHH: EVQLVESGGGVVQTGGSLRLSCAASGRYAMGWFRQVSGKEREFVAFISASGGSTYYADSVKGRFTISRDNAKTTLAYLQMISLKPEDTAVYYCATSGGIFRGLYYDTRNYNYWGQGTLVTVSS
In the case of B18, the binding result in assay [1] and in assay [2] was “binds” in each case.

B19: KY704060 (VHH)
VHH: EVQLVESGGGLVQSGDSLRLSCAASGRSFSRSTMGWFRQAPEKEREFVAVISWAGTTTYYHDSVKGRFTISRDNAKNTVYLQMNSLKPEDTAVYYCAGGRDARILRNARDYDYWGQGTLVTVSS
For the molecule B19, the binding result in assay [1] and in assay [2] was “binds” in each case.

B20: KY704050 (VHH)
VHH: EVQLVESGGGLVQAGGSLRLSCVASGRTLSSYTMGWFRQAPGKEREFLALITWSGGSTHYADSVKGRFTISRDNPKNTAYLQMGSLKPEDTAVYFCAARFRGVIATMARDYDYWGQGTLVTVSS
Turning to B20, the binding result in assay [1] and in assay [2] was “binds” in each case.

B21: KY704043 (VHH)
VHH: EVQLVESGGGLVQAGGSLRLSCVASGRAYRNYVMGWFRQGPGKEREFVATIRPDDGSILSSNSVRGRITISSDNAKNTVYLQMSTLAPEDTAIYYCAYGTTPSMLARKYDYWGQGTLVTVSS
On to B21, for which the binding result in assay [1] and in assay [2] was “binds” throughout.

B22: KY704056 (VHH)
VHH: EVQLVESGGGLVQAGGSLRLSCAASGRYVMGWFRQAPGKEREFVAAITRSGATTNYADSVKGRFTISRDSAKITVYLQMDSLKPEDTAVYYCAASGRYYTAAVEGANYDYWGQGTLVTVSS
As for B22, the binding result in assay [1] and in assay [2] was “binds” throughout.

B23: KY704062 (VHH)
VHH: EVQLVESGGGLVQAGGSLRLSCAASGLAFSSYAAGWFRQAPGKEREFLAVISRGGGTTYYANFVKGRFSISRDNAENTVYLQMNSLKPEDTAVYYCGADTYFGRLVSDPITSDYWGQGTLVTVSS
On to B23, for which the binding result in assay [1] and in assay [2] was “binds” throughout.
